The values that follow come from publication PMC10213043, “Different viral effectors suppress hormone-mediated antiviral immunity of rice coordinated by OsNPR1” (Nature Communications, 2023).

This data set deals with the molecule itself. Nature of the data set: pull-down; purified proteins, 5 µg GST-OsNPR1 with 5 µg MBP-HIS-OsNPR1 or 5 µg MBP-HIS-OsCUL3a, plus 1 or 10 µg MBP-HIS-P2 (or 10 µg MBP-HIS); held on glutathione sepharose beads, 4 °C, 2 h, washed with 1x PBS.

B1: GST-OsNPR1 (natural protein)
chain: MEPPTSHVTNAFSDSDSASVEEGGADADADVEALRRLSDNLAAAFRSPEDFAFLADARIAVPGGGGGGGDLLVHRCVLSARSPFLRGVFARRAAAAAGGGGEDGGERLELRELLGGGGEEVEVGYEALRLVLDYLYSGRVGDLPKAACLCVDEDCAHVGCHPAVAFMAQVLFAASTFQVAELTNLFQRRLLDVLDKVEVDNLLLILSVANLCNKSCMKLLERCLDMVVRSNLDMITLEKSLPPDVIKQIIDARLSLGLISPENKGFPNKHVRRIHRALDSDDVELVRMLLTEGQTNLDDAFALHYAVEHCDSKITTELLDLALADVNHRNPRGYTVLHIAARRREPKIIVSLLTKGARPADVTFDGRKAVQISKRLTKQGDYFGVTEEGKPSPKDRLCIEILEQAERRDPQLGEASVSLAMAGESLRGRLLYLENRVALARIMFPMEARVAMDIAQVDGTLEFNLGSGANPPPERQRTTVDLNESPFIMKEEHLARMTALSKTVELGKRFFPRCSNVLDKIMDDETDPVSLGRDTSAEKRKRFHDLQDVLQKAFHEDKEENDRSGLSSSSSSTSIGAIRPRR
notes: also called second copy in the self-association pull-down: MBP-HIS-OsNPR1; MBP-OsNPR1; source: E. coli Rosetta (DE3), purified
Regarding B1, the binding result is “binds”.
